Data published in US11814435B2, “Therapeutic antibodies and their uses” (PFIZER INC., priority 2015, dated 2023).

T1: hBCMA (human BCMA) (Homo sapiens, UniProt Q02223)
T1 sequence (Q02223 1-184): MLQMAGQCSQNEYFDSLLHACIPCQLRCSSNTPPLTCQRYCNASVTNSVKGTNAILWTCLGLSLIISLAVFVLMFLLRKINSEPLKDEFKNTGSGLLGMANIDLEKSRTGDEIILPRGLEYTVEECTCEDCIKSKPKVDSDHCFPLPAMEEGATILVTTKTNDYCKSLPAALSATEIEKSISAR


Tests used:
[1] = test system: Cyno BCMA; assay: Kinetics and affinity of cyno BCMA/human IgG interactions by SPR (Bio-Rad Proteon XPR36); assay type: binding, cynomolgus; details: 37° C.
[2] = target: T1, hBCMA (human BCMA); assay: Kinetics and affinity of hBCMA/human IgG interactions by SPR (Bio-Rad Proteon XPR36); assay type: binding; details: human BCMA, 37° C.
In short: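 Captured here: binding of soluble BCMA to covalently coupled anti-BCMA IgGs, measured at 37° C. or 25° C. with a five-point single-cycle series (top 50 nM, fivefold dilution) and extended 2 h off-rate phase, analyzed by a 1:1 mass-transport-corrected model.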

Row | Molecule | kd Cyno [1] | ka Human [2] | kd Human [2] | ka Cyno [1]
1 | COMBO_Rd4_0.6 nM_C02: anti-BCMA antibody (antibody, V domains shown) VH: EVQLLESGGGLVQPGGSLRLSCAASGFTFSSYPMSWVRQAPGKGLEWVSAIGGSGGSLPYADSVKGRFTISRDNSKNTLYLQMNSLRAEDTAVYYCARYWPMDSWGQGTLVTVSS VL: EIVLTQSPGTLSLSPGERATLSCRASIAVSSTYLAWYQQKPGQAPRLLMYDASIRATGIPDRFSGSGSGTDFTLTISRLEPEDFAVYYCQQYMVWPLTFGQGTKVEIK | 0.000494 s⁻¹ | 8.57e+06 M⁻¹ s⁻¹ | 0.000185 s⁻¹ | 3.01e+06 M⁻¹ s⁻¹
2 | COMBO_Rd4_0.6 nM_C04: anti-BCMA antibody (antibody, V domains shown) VH: EVQLLESGGGLVQPGGSLRLSCAASGFTFSSYPMSWVRQAPGKGLEWVSAHIGSGGSTYYADSVKGRFTISRDNSKNTLYLQMNSLRAEDTAVYYCARYWPMDSWGQGTLVTVSS VL: EIVLTQSPGTLSLSPGERATLSCRASQSVSSTYLAWYQQKPGQAPRLLMYDASIRATGIPDRFSGSGSGTDFTLTISRLEPEDFAVYYCQQYQSWPLTFGQGTKVEIK | 0.000137 s⁻¹ | 1.07e+07 M⁻¹ s⁻¹ | 0.000158 s⁻¹ | 3.52e+06 M⁻¹ s⁻¹
3 | COMBO_Rd4_6 nM_C21: anti-BCMA antibody (antibody, V domains shown) VH: EVQLLESGGGLVQPGGSLRLSCAASGFTFSSYPMSWVRQAPGKGLEWVSAIGGSGGSLPYADSVKGRFTISRDNSKNTLYLQMNSLRAEDTAVYYCARYWPMDSWGQGTLVTVSS VL: EIVLTQSPGTLSLSPGERATLSCRASQSVSAAYLAWYQQKPGQAPRLLMYDASIRATGIPDRFSGSGSGTDFTLTISRLEPEDFAVYYCQQYMCWPLTFGQGTKVEIK | 0.000248 s⁻¹ | 1.17e+07 M⁻¹ s⁻¹ | 7.34e-05 s⁻¹ | 3.17e+06 M⁻¹ s⁻¹
4 | COMBO_Rd4_6 nM_C09: anti-BCMA antibody (antibody, V domains shown) VH: EVQLLESGGGLVQPGGSLRLSCAASGFTFSSYPMSWVRQAPGKGLEWVSAIFASGGSTYYADSVKGRFTISRDNSKNTLYLQMNSLRAEDTAVYYCARYWPMDSWGQGTLVTVSS VL: EIVLTQSPGTLSLSPGERATLSCRASQSVSAQYLAWYQQKPGQAPRLLMYDASIRATGIPDRFSGSGSGTDFTLTISRLEPEDFAVYYCQQYQAWPLTFGQGTKVEIK | 0.000318 s⁻¹ | 8.85e+06 M⁻¹ s⁻¹ | 0.000143 s⁻¹ | 2.37e+06 M⁻¹ s⁻¹
5 | COMBO_Rd4_6 nM_C10: anti-BCMA antibody (antibody, V domains shown) VH: EVQLLESGGGLVQPGGSLRLSCAASGFTFSSYPMSWVRQAPGKGLEWVSAIGGSGGSIHYADSVKGRFTISRDNSKNTLYLQMNSLRAEDTAVYYCARYWPMDSWGQGTLVTVSS VL: EIVLTQSPGTLSLSPGERATLSCRASQSVSSSYWGWYQQKPGQAPRLLMYDASIRATGIPDRFSGSGSGTDFTLTISRLEPEDFAVYYCQQYQCWPLTFGQGTKVEIK | 0.00016 s⁻¹ | 5.47e+06 M⁻¹ s⁻¹ | 9.72e-05 s⁻¹ | 1.52e+06 M⁻¹ s⁻¹
6 | C01_Rd4_0.6 nM_C06: anti-BCMA antibody (antibody, V domains shown) VH: EVQLLESGGGLVQPGGSLRLSCAASGFTFSSYPMSWVRQAPGKGLEWVSAIGGSGGSLPYADSVKGRFTISRDNSKNTLYLQMNSLRAEDTAVYYCARYWPMDSWGQGTLVTVSS VL: EIVLTQSPGTLSLSPGERATLSCRASEAVPSTYLAWYQQKPGQAPRLLIYDASSRAPGIPDRFSGSGSGTDFTLTISRLEPEDFAVYYCQQYSAFPLTFGQGTKVEIK | 0.0121 s⁻¹ | 1.82e+07 M⁻¹ s⁻¹ | 0.0154 s⁻¹ | 6.22e+06 M⁻¹ s⁻¹
7 | COMBO_Rd4_0.6 nM_C21: anti-BCMA antibody (antibody, V domains shown) VH: EVQLLESGGGLVQPGGSLRLSCAASGFTFSSYPMSWVRQAPGKGLEWVSAIGGSGGSLPYADSVKGRFTISRDNSKNTLYLQMNSLRAEDTAVYYCARYWPMDSWGQGTLVTVSS VL: EIVLTQSPGTLSLSPGERATLSCRASQSVSSSYLAWYQQKPGQAPRLLMYDASIRATGIPDRFSGSGSGTDFTLTISRLEPEDFAVYYCQQYQSWPLTFGQGTKVEIK | 0.000304 s⁻¹ | 1.34e+07 M⁻¹ s⁻¹ | 0.000115 s⁻¹ | 3.63e+06 M⁻¹ s⁻¹
8 | COMBO_Rd4_6 nM_C11: anti-BCMA antibody (antibody, V domains shown) VH: EVQLLESGGGLVQPGGSLRLSCAASGFTFSSYPMSWVRQAPGKGLEWVSAIGGSGGSLGYADSVKGRFTISRDNSKNTLYLQMNSLRAEDTAVYYCARYWPMDSWGQGTLVTVSS VL: EIVLTQSPGTLSLSPGERATLSCRASQSVSPLYLAWYQQKPGQAPRLLMYDASIRATGIPDRFSGSGSGTDFTLTISRLEPEDFAVYYCQQYKAWPLTFGQGTKVEIK | 0.000412 s⁻¹ | 6.74e+06 M⁻¹ s⁻¹ | 0.000124 s⁻¹ | 2.64e+06 M⁻¹ s⁻¹
9 | COMBO_Rd4_0.6 nM_C19: anti-BCMA antibody (antibody, V domains shown) VH: EVQLLESGGGLVQPGGSLRLSCAASGFTFSSYPMSWVRQAPGKGLEWVSAIGGSGGSLPYADSVKGRFTISRDNSKNTLYLQMNSLRAEDTAVYYCARYWPMDSWGQGTLVTVSS VL: EIVLTQSPGTLSLSPGERATLSCRASQSVSAVYLAWYQQKPGQAPRLLMYDASIRATGIPDRFSGSGSGTDFTLTISRLEPEDFAVYYCQQYRAWPLTFGQGTKVEIK | 0.000979 s⁻¹ | 7.86e+06 M⁻¹ s⁻¹ | 0.000155 s⁻¹ | 2.92e+06 M⁻¹ s⁻¹
10 | COMBO_Rd4_6 nM_C08: anti-BCMA antibody (antibody, V domains shown) VH: EVQLLESGGGLVQPGGSLRLSCAASGFTFSSYPMSWVRQAPGKGLEWVSAIGGSGTWTYYADSVKGRFTISRDNSKNTLYLQMNSLRAEDTAVYYCARYWPMDSWGQGTLVTVSS VL: EIVLTQSPGTLSLSPGERATLSCRASQSVSSSYLAWYQQKPGQAPRLLMYDASIRATGIPDRFSGSGSGTDFTLTISRLEPEDFAVYYCQQYQKWPLTFGQGTKVEIK | 0.000428 s⁻¹ | 8.99e+06 M⁻¹ s⁻¹ | 0.000169 s⁻¹ | 3.06e+06 M⁻¹ s⁻¹

Continued, in another order:

Row | kd Cyno [1] | ka Human [2] | kd Human [2] | Molecule | ka Cyno [1]
11 | 0.0119 s⁻¹ | 1.55e+07 M⁻¹ s⁻¹ | 0.015 s⁻¹ | C01_Rd4_0.6 nM_C03: anti-BCMA antibody (antibody, V domains shown) VH: EVQLLESGGGLVQPGGSLRLSCAASGFTFSSYPMSWVRQAPGKGLEWVSAIGGSGGSLPYADSVKGRFTISRDNSKNTLYLQMNSLRAEDTAVYYCARYWPMDSWGQGTLVTVSS VL: EIVLTQSPGTLSLSPGERATLSCRASCDVSSTYLAWYQQKPGQAPRLLIYDASSRAPGIPDRFSGSGSGTDFTLTISRLEPEDFAVYYCQQYMRSPLTFGQGTKVEIK | 4.72e+06 M⁻¹ s⁻¹
12 | 0.0327 s⁻¹ | 2.33e+07 M⁻¹ s⁻¹ | 0.0497 s⁻¹ | C01_Rd4_6 nM_C04: anti-BCMA antibody (antibody, V domains shown) VH: EVQLLESGGGLVQPGGSLRLSCAASGFTFSSYPMSWVRQAPGKGLEWVSAIGGSGGSLPYADSVKGRFTISRDNSKNTLYLQMNSLRAEDTAVYYCARYWPMDSWGQGTLVTVSS VL: EIVLTQSPGTLSLSPGERATLSCCSSQSVSSTYLAWYQQKPGQAPRLLIYDASSRAPGIPDRFSGSGSGTDFTLTISRLEPEDFAVYYCQQYSAFPLTFGQGTKVEIK | 6.34e+06 M⁻¹ s⁻¹
13 | 0.000226 s⁻¹ | 7.98e+06 M⁻¹ s⁻¹ | 0.000113 s⁻¹ | COMBO_Rd4_6 nM_C25: anti-BCMA antibody (antibody, V domains shown) VH: EVQLLESGGGLVQPGGSLRLSCAASGFTFSSYPMSWVRQAPGKGLEWVSAIGGSGGSTYYADSVKGRFTISRDNSKNTLYLQMNSLRAEDTAVYYCARYWPMDPWGQGTLVTVSS VL: EIVLTQSPGTLSLSPGERATLSCRASQSVSSPYLAWYQQKPGQAPRLLMYDASIRATGIPDRFSGSGSGTDFTLTISRLEPEDFAVYYCQQYQSWPLTFGQGTKVEIK | 2.85e+06 M⁻¹ s⁻¹
14 | 0.000284 s⁻¹ | 7.65e+06 M⁻¹ s⁻¹ | 0.000146 s⁻¹ | COMBO_Rd4_0.6 nM_C20: anti-BCMA antibody (antibody, V domains shown) VH: EVQLLESGGGLVQPGGSLRLSCAASGFTFSSYPMSWVRQAPGKGLEWVSAIGGSGGSLPYADSVKGRFTISRDNSKNTLYLQMNSLRAEDTAVYYCARYWPMDSWGQGTLVTVSS VL: EIVLTQSPGTLSLSPGERATLSCRASQSVSYLYLAWYQQKPGQAPRLLMYDASIRATGIPDRFSGSGSGTDFTLTISRLEPEDFAVYYCQQYMEWPLTFGQGTKVEIK | 3.09e+06 M⁻¹ s⁻¹
15 | 0.000531 s⁻¹ | 7.39e+06 M⁻¹ s⁻¹ | 0.00021 s⁻¹ | COMBO_Rd4_0.6 nM_C23: anti-BCMA antibody (antibody, V domains shown) VH: EVQLLESGGGLVQPGGSLRLSCAASGFTFSSYPMSWVRQAPGKGLEWVSALFGSGGSTYYADSVKGRFTISRDNSKNTLYLQMNSLRAEDTAVYYCARYWPMDSWGQGTLVTVSS VL: EIVLTQSPGTLSLSPGERATLSCRPRQSVSSSYLAWYQQKPGQAPRLLMYDASIRATGIPDRFSGSGSGTDFTLTISRLEPEDFAVYYCQQYQDWPLTFGQGTKVEIK | 2.81e+06 M⁻¹ s⁻¹
